In US20200157519A1 (IMMUNWORK, published 2020):

Target: T1, human fibrinogen (human, UniProt P02671 20-629; P02675 31-491; P02679 27-437, limits assumed)
T1 construct: Bought protein, used as the negative control antigen; also called fibrinogen from human (Sigma)
T1 sequence (looked up) 1: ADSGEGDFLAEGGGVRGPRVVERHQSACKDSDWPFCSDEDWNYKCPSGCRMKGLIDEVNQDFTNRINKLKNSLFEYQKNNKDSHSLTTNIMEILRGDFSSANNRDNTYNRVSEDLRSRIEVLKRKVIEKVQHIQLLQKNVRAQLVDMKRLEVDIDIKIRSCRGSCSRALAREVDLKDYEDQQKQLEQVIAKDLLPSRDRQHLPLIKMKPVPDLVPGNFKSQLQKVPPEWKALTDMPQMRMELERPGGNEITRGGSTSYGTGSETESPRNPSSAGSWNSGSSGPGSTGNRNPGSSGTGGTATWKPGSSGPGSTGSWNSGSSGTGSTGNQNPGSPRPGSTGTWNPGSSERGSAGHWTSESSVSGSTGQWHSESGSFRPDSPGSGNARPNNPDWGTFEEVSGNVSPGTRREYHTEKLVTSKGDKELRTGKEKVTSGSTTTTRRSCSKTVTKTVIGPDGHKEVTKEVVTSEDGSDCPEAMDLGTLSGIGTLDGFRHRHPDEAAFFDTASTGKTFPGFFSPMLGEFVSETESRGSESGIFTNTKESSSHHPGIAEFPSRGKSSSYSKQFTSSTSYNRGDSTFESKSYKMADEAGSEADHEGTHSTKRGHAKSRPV
T1 sequence (looked up) 2: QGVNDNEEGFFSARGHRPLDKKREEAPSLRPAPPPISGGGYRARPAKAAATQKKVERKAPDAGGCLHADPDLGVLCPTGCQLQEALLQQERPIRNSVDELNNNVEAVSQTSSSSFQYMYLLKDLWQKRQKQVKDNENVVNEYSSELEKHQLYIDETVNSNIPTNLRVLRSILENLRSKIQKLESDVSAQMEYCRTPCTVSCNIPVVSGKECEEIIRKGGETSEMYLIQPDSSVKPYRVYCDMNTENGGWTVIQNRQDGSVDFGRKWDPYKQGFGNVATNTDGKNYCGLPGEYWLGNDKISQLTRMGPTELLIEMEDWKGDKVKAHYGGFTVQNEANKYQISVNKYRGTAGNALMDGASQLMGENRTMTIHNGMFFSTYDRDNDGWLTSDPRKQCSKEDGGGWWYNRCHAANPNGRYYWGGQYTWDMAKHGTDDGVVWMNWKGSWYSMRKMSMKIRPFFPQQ
T1 sequence (looked up) 3: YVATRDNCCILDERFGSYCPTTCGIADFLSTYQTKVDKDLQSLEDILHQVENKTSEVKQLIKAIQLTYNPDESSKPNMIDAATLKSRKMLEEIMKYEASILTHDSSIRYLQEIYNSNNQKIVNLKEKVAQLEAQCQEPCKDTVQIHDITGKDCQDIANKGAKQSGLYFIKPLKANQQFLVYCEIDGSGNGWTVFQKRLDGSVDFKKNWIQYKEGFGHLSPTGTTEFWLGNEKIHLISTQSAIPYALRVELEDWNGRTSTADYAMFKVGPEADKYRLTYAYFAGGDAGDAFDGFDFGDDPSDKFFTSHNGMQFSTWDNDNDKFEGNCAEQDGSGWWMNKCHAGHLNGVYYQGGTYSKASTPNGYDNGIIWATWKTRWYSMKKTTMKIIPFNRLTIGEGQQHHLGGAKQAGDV
Experiment: ELISA, HRP-conjugated polyclonal rabbit anti-reteplase antibody

B1: recombinant (3D5 VL-(G4S)3-VH scFv α fibrin)-reteplase polypeptide (other)
chain: DIQMTQSPSSLSASVGDRVTITCRASQDVSNNVAWYQQKPGKAPKLLIFWSPWLYSGVPSRFSGSGSGTDFTLTISSLQPEDFATYYCQQGWDSPVTFGQGTKVEIKRGSTSGSGKPGSGEGSTKGEVQLVESGGGLVQPGGSLRLSCAASGFTISDFGIHWVRQAPGKGLEWVASIWPSGGYTYYADSVKGRFTISADTSKNTAYLQMNSLRAEDTAVYYCARSWFYSWYDYWGQGTLVTVSSASGGGGSGGGGSGGGGSSYQGNSDCYFGNGSAYRGTHSLTESGASCLPWNSMILIGKVYTAQNPSAQALGLGKHNYCRNPDGDAKPWCHVLKNRRLTWEYCDVPSCSTCGLRQYSQPQFRIKGGLFADIASHPWQAAIFAKHRRSPGERFLCGGILISSCWILSAAHCFQERFPPHHLTVILGRTYRVVPGEEEQKFEVEKYIVHKEFDDDTYDNDIALLQLKSDSSRCAQESSVVRTVCLPPADLQLPDWTECELSGYGKHEALSPFYSERLKEAHVRLYPSSRCTSQHLLNRTVTDNMLCAGDTRSGGPQANLHDACQGDSGGPLVCLNDGRMTLVGIISWGLGCGQKDVPGVYTKVTNYLDWIRDNMRPA
notes: Fusion: 3D5 scFv (VL, flexible linker, VH) at the N-terminus of reteplase through a flexible linker; also called (3D5 scFv)-reteplase
B1: no binding.
